In assay [1] the target is Lymphocyte Function-associated Antigen-1 (LFA-1), on cells (human) (UniProt P20701).
Assay [2] has the same target. The source holds these as a separate data set.
The next assay has as its target ICAM-1 S5/T (human) (UniProt P05362). Description: 35S-HRV14 on COS cells.
Assay [3] concerns the target ICAM-1 N269QSQI/IQAEQ (human) (UniProt P05362). The assay is described as follows: 35S-HRV14 on COS cells.
Assay [4] deals with ICAM-1 A115N/SV (printed A155N/SV at paragraph 410) (human) (UniProt P05362). Description: 35S-HRV14 on COS cells.
The next assay has as its target ICAM-1 Y476/TAG (human) (UniProt P05362).
The target of assay [5] is Intercellular Adhesion Molecule-1 (ICAM-1), wild type, on the cell surface (human) (UniProt P05362).
The target of another assay is purified ICAM-1 (human) (UniProt P05362).
The target of assay [6] is Intercellular Adhesion Molecule-1 (ICAM-1), wild type, on the cell surface (human) (UniProt P05362). This is another data set of the same source.

As to anti-LFA-1 antibody R3.1, the % inhibition of the mixed lymphocyte reaction in [1] came out at 93 % inhibition.
On to anti-LFA-1 monoclonal antibody TS1/18, for which the binding of JY cells to ICAM-1 in plastic-bound vesicles in assay [2] was determined as 96 % inhibition.
As to “human rhinovirus 14 (HRV14) (from UniProt P03303)”, the HRV Binding % (% of wild type) with ICAM-1 S5/T (human) came out at 125; in [3] it was 108; in [4], 12.
monoclonal antibody RR1/1: the % of cells expressing ICAM-1 that bind LFA-1 in the presence of RR1/1 (with ICAM-1 Y476/TAG (human); in [5]) was 0% in each case. The binding of JY cells to ICAM-1 in plastic-bound vesicles with purified ICAM-1 (human) worked out at 97 % inhibition. This substance also had a % inhibition of PMA-stimulated PHA-lymphoblast aggregation in assay [6] of 51 % inhibition.

The values above are taken from patent US20090035321A1, “Intercellular adhesion molecules and their binding ligands” (Boehringer Ingelheim Pharmaceuticals, Inc., published 2009).
